Test results from PMC4538796.

Legend:
[1] = target: GAGAH (GAGA zinc finger/AT-Hook conjugate) (UniProt Q08605); assay: fluorescence anisotropy; details: Zn2+, Anisotropy (given for GAGAH): 20 mM Tris-HCl pH 7.5, 100 mM NaCl, 0.02 mM ZnCl2, 20 C, 25 nM TMR-DNA, EMSA: 75 nM dsDNA, rt (GAGAH), 10% native PAGE, 0.5x TBE …
[2] = target: brH (GCN4 basic region/AT-Hook conjugate) (UniProt P03069); assay: fluorescence anisotropy; details: 20 C; 25 nM DNA; apparent; Anisotropy (given for GAGAH): 20 mM Tris-HCl pH 7.5, 100 mM NaCl, 0.02 mM ZnCl2, 20 C, 25 nM TMR-DNA; EMSA: 75 nM dsDNA, rt (GAGAH), 10% native PAGE, 0.5x TBE …

Sequence of UniProt Q08605 (Q08605 other isoform, or with tags, fused parts or gaps, change not shown): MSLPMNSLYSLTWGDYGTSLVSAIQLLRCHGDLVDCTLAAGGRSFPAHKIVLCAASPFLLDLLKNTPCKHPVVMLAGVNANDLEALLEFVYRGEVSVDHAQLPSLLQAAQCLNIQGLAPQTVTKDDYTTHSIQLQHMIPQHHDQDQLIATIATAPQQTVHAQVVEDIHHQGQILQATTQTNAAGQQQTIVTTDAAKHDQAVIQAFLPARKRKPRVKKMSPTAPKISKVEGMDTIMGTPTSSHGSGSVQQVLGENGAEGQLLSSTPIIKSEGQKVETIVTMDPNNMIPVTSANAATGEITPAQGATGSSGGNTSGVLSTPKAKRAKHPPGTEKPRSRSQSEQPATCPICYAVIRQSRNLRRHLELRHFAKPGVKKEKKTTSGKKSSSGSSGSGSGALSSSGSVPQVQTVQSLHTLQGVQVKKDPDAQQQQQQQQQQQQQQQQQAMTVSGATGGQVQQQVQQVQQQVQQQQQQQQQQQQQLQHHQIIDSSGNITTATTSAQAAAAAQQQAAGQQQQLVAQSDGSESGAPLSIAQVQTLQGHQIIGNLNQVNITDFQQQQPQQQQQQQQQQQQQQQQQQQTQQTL

## CGCGTCATAATTGAGAGCGC (double strand) [TMR-AP1hs·AT = TMR-AT·GAGA]
[1]; 20 C, 25 nM DNA, apparent
  Kd: 26 nM
[1]; excess calf thymus DNA competitor
  Kd: 42 nM
[2]
  Kd: 28 nM
